# In patent US20030148956A1 (PROCTER AND GAMBLE, published 2003):
# Ends that are not written are not given here.
# T1: corticotropin releasing factor 2 receptor
# T1 sequence (Q13324 whole entry, species assumed, looked up): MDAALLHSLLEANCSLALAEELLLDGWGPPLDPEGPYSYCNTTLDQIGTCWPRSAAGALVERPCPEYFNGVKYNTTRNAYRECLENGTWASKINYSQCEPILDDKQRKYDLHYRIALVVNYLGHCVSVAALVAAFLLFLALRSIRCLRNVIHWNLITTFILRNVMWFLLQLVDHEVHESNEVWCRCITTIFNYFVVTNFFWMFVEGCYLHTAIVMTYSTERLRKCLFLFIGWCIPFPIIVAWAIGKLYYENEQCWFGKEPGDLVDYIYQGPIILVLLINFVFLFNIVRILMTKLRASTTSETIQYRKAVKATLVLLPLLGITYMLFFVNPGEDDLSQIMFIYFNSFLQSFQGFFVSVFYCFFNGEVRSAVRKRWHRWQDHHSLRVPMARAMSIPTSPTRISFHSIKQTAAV
# Target: T1, corticotropin releasing factor 2 …
# Assay: cell-based or functional assay
Binder,CRF2R EC50,CRF2R Emax %
NDDPPISIDLPLILLRNMIEMARIENEREQAGLNAKYLAEV-NH2 [SEQ ID NO 269],100 nM,77.3%
ZGPPISIDLPTWLLRKVIEIEKQEKEKQQAANNRLLLDTI (C-terminal amide) [SEQ ID NO 284],100 nM,100%
ZGPPISIDLPQILLRKVIEIEKQEKEKQQAANNRLLLDTI (C-terminal amide) [SEQ ID NO 293],40.3 nM,87%
NDDPPISIDLPFFLLRNMIEMARIENEREQAGLNAKYLAEV-NH2 [SEQ ID NO 264],100 nM,66.3%
NDDPPISIDLPLLLLRNMIEMARIENEREQAGLNAKYLAEV-NH2 [SEQ ID NO 268],100 nM,59%
NDDPPISIDLPTYLLRNMIEMARIENEREQAGLNAKYLAEV-NH2 [SEQ ID NO 266],100 nM,19.4%
NDDPPISIDLPYYLLRNMIEMARIENEREQAGLNAKYLAEV-NH2 [SEQ ID NO 267],100 nM,44.2%
NDDPPISIDLPLQLLRNMIEMARIENEREQAGLNAKYLAEV-NH2 [SEQ ID NO 270],100 nM,19.3%
ZGPPISIDLPYQLLRKMIEIEKQEKEKQQAANNARLLAR (C-terminal amide) [SEQ ID NO 287],11.3 nM,100%
ZGPPISIDLPYQLLRKMIEIEKQEKEKQQAANNARLLAR (C-terminal amide) [SEQ ID NO 288],14.7 nM,100%
ZGPPISIDLPFQLLRKVIEIEKQEKEKQQAANNAELLAEI (C-terminal amide) [SEQ ID NO 272],23.3 nM,100%
ZGPPISIDLPIFLLRKVIEIEKQEKEKQQAANNARLLARI (C-terminal amide) [SEQ ID NO 281],100 nM,78.8%
ZGPPISIDLPFQLLRKVIEIEKQEKEKQQAANNAQLLAHI (C-terminal amide) [SEQ ID NO 273],31.3 nM,100%
ZGPPISIDLPTWLLRKVIEIEKQEKEKQQAANNARLLARI (C-terminal amide) [SEQ ID NO 291],100 nM,63.8%
ZGPPISIDLPFQLLRKVIEIEKQEKEKQQAANNAKLLAKI (C-terminal amide) [SEQ ID NO 274],13.8 nM,100%
ZGPPISIDLPFQLLRKVIEIEKQEKEKQQAANNAQLLAQI (C-terminal amide) [SEQ ID NO 276],22.1 nM,100%

Binder,CRF2R EC50,CRF2R Emax %
ZGPPISIDLPYWLLRKMIEIEKQEKEKQQAANNARLLARI (C-terminal amide) [SEQ ID NO 289],12.2 nM,97.3%
ZGPPISIDLPIFLLRKVIEIEKQEKEKQQAANNALLLATI (C-terminal amide) [SEQ ID NO 280],100 nM,82.3%
ZGPPISIDLPYQLLRKVIEIEKQEKEKQQAANNRLLLDTI (C-terminal amide) [SEQ ID NO 283],10.6 nM,72%
ZGPPISIDLPIFLLRKMIEIEKQEKEKQQAANNARLLARI (C-terminal amide) [SEQ ID NO 282],25.8 nM,60.8%
ZGPPISIDLPFQLLRKVIEIEKQEKEKQQAANNARLLDTI (C-terminal amide) [SEQ ID NO 278],19.6 nM,100%
ZGPPISIDLPQILLRKVIEIEKQEKEKQQAANNARLLARI (C-terminal amide) [SEQ ID NO 294],100 nM,100%
ZGPPISIDLPFQLLRKVIEIEKQEKEKQQAANNAHLLAHI (C-terminal amide) [SEQ ID NO 277],28.2 nM,100%
ZGPPISIDLPTWLLRKMIEIEKQEKEKQQAANNARLLARI (C-terminal amide) [SEQ ID NO 292],100 nM,86.1%
ZGPPISIDLPIILLRKMIEIEKQEKEKQQAANNARLLARI (C-terminal amide) [SEQ ID NO 290],100 nM,100%
ZGPPISIDLPFQLLRKVIEIEKQEKEKQQAANNARLLARI (C-terminal amide) [SEQ ID NO 279],13.1 nM,100%
ZGPPISIDLPFQLLRKVIEIEKQEKEKQQAANNANLLANI (C-terminal amide) [SEQ ID NO 275],46.6 nM,100%
ZGPPISIDLPYQLLRKVIEIEKQEKEKQQAANNARLLARI (C-terminal amide) [SEQ ID NO 286],13.5 nM,92.5%
ZGPPISIDLPQILLRKMIEIEKQEKEKQQAANNARLLARI (C-terminal amide) [SEQ ID NO 285],13.9 nM,97.1%
NDDPPISIDLPLYLLRNMIEMARIENEREQAGLNAKYLAEV-NH2 [SEQ ID NO 271],48.1 nM,69%
NDDPPISIDLPQYLLRNMIEMARIENEREQAGLNAKYLAEV-NH2 [SEQ ID NO 265],100 nM,23.4%

# Target: corticotropin releasing factor 1 receptor
# Assay: cell-based or functional assay
Binder,CRF1R EC50,CRF1R Emax %
NDDPPISIDLPLILLRNMIEMARIENEREQAGLNAKYLAEV-NH2 [SEQ ID NO 269],1000 nM,44.3%
ZGPPISIDLPTWLLRKVIEIEKQEKEKQQAANNRLLLDTI (C-terminal amide) [SEQ ID NO 284],1000 nM,27.7%
ZGPPISIDLPQILLRKVIEIEKQEKEKQQAANNRLLLDTI (C-terminal amide) [SEQ ID NO 293],520 nM,95.3%
NDDPPISIDLPFFLLRNMIEMARIENEREQAGLNAKYLAEV-NH2 [SEQ ID NO 264],704 nM,100%
NDDPPISIDLPLLLLRNMIEMARIENEREQAGLNAKYLAEV-NH2 [SEQ ID NO 268],1000 nM,14.2%
NDDPPISIDLPTYLLRNMIEMARIENEREQAGLNAKYLAEV-NH2 [SEQ ID NO 266],1000 nM,4.45%
NDDPPISIDLPYYLLRNMIEMARIENEREQAGLNAKYLAEV-NH2 [SEQ ID NO 267],1000 nM,22.8%
NDDPPISIDLPLQLLRNMIEMARIENEREQAGLNAKYLAEV-NH2 [SEQ ID NO 270],1000 nM,7.85%
ZGPPISIDLPYQLLRKMIEIEKQEKEKQQAANNARLLAR (C-terminal amide) [SEQ ID NO 287],1000 nM,–
ZGPPISIDLPYQLLRKMIEIEKQEKEKQQAANNARLLAR (C-terminal amide) [SEQ ID NO 288],838 nM,–
ZGPPISIDLPFQLLRKVIEIEKQEKEKQQAANNAELLAEI (C-terminal amide) [SEQ ID NO 272],1000 nM,51.1%
ZGPPISIDLPIFLLRKVIEIEKQEKEKQQAANNARLLARI (C-terminal amide) [SEQ ID NO 281],1000 nM,12.2%
ZGPPISIDLPFQLLRKVIEIEKQEKEKQQAANNAQLLAHI (C-terminal amide) [SEQ ID NO 273],1000 nM,59.3%
ZGPPISIDLPTWLLRKVIEIEKQEKEKQQAANNARLLARI (C-terminal amide) [SEQ ID NO 291],1000 nM,4.75%
ZGPPISIDLPFQLLRKVIEIEKQEKEKQQAANNAKLLAKI (C-terminal amide) [SEQ ID NO 274],508 nM,80.9%
ZGPPISIDLPFQLLRKVIEIEKQEKEKQQAANNAQLLAQI (C-terminal amide) [SEQ ID NO 276],1000 nM,75.7%

Binder,CRF1R EC50,CRF1R Emax %
ZGPPISIDLPYWLLRKMIEIEKQEKEKQQAANNARLLARI (C-terminal amide) [SEQ ID NO 289],1000 nM,69.5%
ZGPPISIDLPIFLLRKVIEIEKQEKEKQQAANNALLLATI (C-terminal amide) [SEQ ID NO 280],1000 nM,11.8%
ZGPPISIDLPYQLLRKVIEIEKQEKEKQQAANNRLLLDTI (C-terminal amide) [SEQ ID NO 283],635 nM,100%
ZGPPISIDLPIFLLRKMIEIEKQEKEKQQAANNARLLARI (C-terminal amide) [SEQ ID NO 282],1000 nM,21.8%
ZGPPISIDLPFQLLRKVIEIEKQEKEKQQAANNARLLDTI (C-terminal amide) [SEQ ID NO 278],1000 nM,48.7%
ZGPPISIDLPQILLRKVIEIEKQEKEKQQAANNARLLARI (C-terminal amide) [SEQ ID NO 294],1000 nM,13.6%
ZGPPISIDLPFQLLRKVIEIEKQEKEKQQAANNAHLLAHI (C-terminal amide) [SEQ ID NO 277],1000 nM,39.9%
ZGPPISIDLPTWLLRKMIEIEKQEKEKQQAANNARLLARI (C-terminal amide) [SEQ ID NO 292],1000 nM,7%
ZGPPISIDLPIILLRKMIEIEKQEKEKQQAANNARLLARI (C-terminal amide) [SEQ ID NO 290],1000 nM,6.4%
ZGPPISIDLPFQLLRKVIEIEKQEKEKQQAANNARLLARI (C-terminal amide) [SEQ ID NO 279],1000 nM,93%
ZGPPISIDLPFQLLRKVIEIEKQEKEKQQAANNANLLANI (C-terminal amide) [SEQ ID NO 275],1000 nM,38.3%
ZGPPISIDLPYQLLRKVIEIEKQEKEKQQAANNARLLARI (C-terminal amide) [SEQ ID NO 286],1000 nM,19.2%
ZGPPISIDLPQILLRKMIEIEKQEKEKQQAANNARLLARI (C-terminal amide) [SEQ ID NO 285],1000 nM,11.1%
NDDPPISIDLPLYLLRNMIEMARIENEREQAGLNAKYLAEV-NH2 [SEQ ID NO 271],815 nM,80.7%
NDDPPISIDLPQYLLRNMIEMARIENEREQAGLNAKYLAEV-NH2 [SEQ ID NO 265],1000 nM,9.3%
